In article doi:10.1101/2023.01.09.523197:

Molecular target: M. tuberculosis RNA polymerase holoenzyme (M. tuberculosis) (UniProt P9WGZ1)
Assay: single-molecule fluorescence

M. tuberculosis GlnR C60SL147C labelled with Alexa Fluor 647 (from UniProt O53830 1-255) (natural protein)
stoichiometry N: 4
